Protein stability index data for 94 variants are collected here from the supplement of paper PMC10567573.

The labels stand for the following.
B1: TPD52L1 (parent)
chain: ISKKFGDMSYSIRHSISMPAMRNS
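Also: lentivirally expressed fusions sorted by FACS into six bins by GFP to DsRed ratio, PSI derived from sequencing read proportions per bin multiplied by bin number.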

This series covers variants of B1. In words: protein stability index of a GFP-peptide fusion (GPS, HEK-293T) (PSI 1-6); higher = more stable. To be noted: c terminus: a fixed tail appended.
With ISKKFGDMSYSIRHSISMYAMRNS, the protein stability index came to 1.7.
Take ISKKFGDMSYSIRHSISMDAMRNS: the protein stability index is 2.2.
To ISKKFGDMSYSIRHSISMRAMRNS belongs 1.9.
To ISKKFGDMSYSIRHSISMEAMRNS belongs 2.47; to ISKKFGDMSYSIRHSISMSAMRNS, 1.97.
To ISKKFGDMSYSIRHSISMWAMRNS belongs 1.71.
Consider ISKKFGDMSYSIRHSISMHAMRNS, for which the protein stability index was found to be 2.01.
To ISKKFGDMSYSIRHSISMFAMRNS belongs 1.87.
To ISKKFGDMSYSIRHSISMVAMRNS belongs 1.87.
For ISKKFGDMSYSIRHSISMPLMRNS the value was 1.93; for ISKKFGDMSYSIRHSISMPGMRNS, 1.67; for ISKKFGDMSYSIRHSISMPYMRNS, 2.17.
As to ISKKFGDMSYSIRHSISMPQMRNS, the protein stability index stood at 2.26.
For ISKKFGDMSYSIRHSISMPTMRNS the value was 2.58; for ISKKFGDMSYSIRHSISMPPMRNS, 2.36; for ISNKFGDMSYSIRHSISMPAMRNS, 2.5.
For ISMKFGDMSYSIRHSISMPAMRNS the value was 2.67; for ISQKFGDMSYSIRHSISMPAMRNS, 2.25.
For ISDKFGDMSYSIRHSISMPAMRNS the value was 2.34; for ISHKFGDMSYSIRHSISMPAMRNS, 2.37.
Regarding ISEKFGDMSYSIRHSISMPAMRNS, the protein stability index turned out to be 2.62.
For ISLKFGDMSYSIRHSISMPAMRNS the value was 2.83; for ISSKFGDMSYSIRHSISMPAMRNS, 2.25.
For the variant ISIKFGDMSYSIRHSISMPAMRNS, the protein stability index was 3.53.
For ISKKFGDMSYSIRHKISMPAMRNS the value was 2.31; for ISKKFGDMSYSIRHIISMPAMRNS, 1.87.
To ISKKFGDMSYSIRHCISMPAMRNS belongs 2.23; to ISKKFGDMSYSIRHHISMPAMRNS, 1.85; to ISKKFGDMSYSIRHPISMPAMRNS, 2.43.
For ISKGFGDMSYSIRHSISMPAMRNS the value was 2; for ISKEFGDMSYSIRHSISMPAMRNS, 2.33.
Take ISKTFGDMSYSIRHSISMPAMRNS: the protein stability index was found to be 2.48.
To ISKAFGDMSYSIRHSISMPAMRNS belongs 2.35; to ISKIFGDMSYSIRHSISMPAMRNS, 1.98; to ISKPFGDMSYSIRHSISMPAMRNS, 2.48.
Regarding ISKDFGDMSYSIRHSISMPAMRNS, the protein stability index turned out to be 2.47.
To ISKYFGDMSYSIRHSISMPAMRNS belongs 2.71.
For ISKCFGDMSYSIRHSISMPAMRNS the value was 2.36; for ISKVFGDMSYSIRHSISMPAMRNS, 2.01.
To ISKFFGDMSYSIRHSISMPAMRNS belongs 1.58.
Take ISKMFGDMSYSIRHSISMPAMRNS: the protein stability index was 2.1.
To ISKLFGDMSYSIRHSISMPAMRNS belongs 1.52.
For ISKKFGDMSYPIRHSISMPAMRNS the value was 2.58; for ISKKFGDMSYHIRHSISMPAMRNS, 2.41; for ISKKFGDMSYNIRHSISMPAMRNS, 2.74.
To ISKKFGDMSYRIRHSISMPAMRNS belongs 2.24; to ISKKFGDMSYCIRHSISMPAMRNS, 1.88.
Consider ISKKFGDMSYYIRHSISMPAMRNS, for which the protein stability index worked out at 2.06.
For ISKKFGDMSYMIRHSISMPAMRNS the value was 2.03; for ISKKFGDMSYDIRHSISMPAMRNS, 2.68.
For ISKKFGMMSYSIRHSISMPAMRNS the value was 1.51.
ISKKFGCMSYSIRHSISMPAMRNS: the protein stability index turned out to be 1.69.
To ISKKFGPMSYSIRHSISMPAMRNS belongs 2.14.
To ISKKFGFMSYSIRHSISMPAMRNS belongs 1.7; to ISKKFGWMSYSIRHSISMPAMRNS, 1.9; to ISKKFGVMSYSIRHSISMPAMRNS, 1.82.
For the variant ISKKFGHMSYSIRHSISMPAMRNS, the protein stability index turned out to be 1.77.
For ISKKFGYMSYSIRHSISMPAMRNS the value was 2.31; for ISKKFVDMSYSIRHSISMPAMRNS, 2.15.
To ISKKFLDMSYSIRHSISMPAMRNS belongs 1.45.
In the case of ISKKFPDMSYSIRHSISMPAMRNS, the protein stability index is 2.75.
Consider ISKKFRDMSYSIRHSISMPAMRNS, for which the protein stability index worked out at 2.35.
For ISKKFYDMSYSIRHSISMPAMRNS the value was 1.86; for ISKKFNDMSYSIRHSISMPAMRNS, 2.15; for ISKKFGDMSYSIRHSQSMPAMRNS, 2.72.
For the variant ISKKFGDMSYSIRHSMSMPAMRNS, the protein stability index is 2.9.
Take ISKKFGDMSYSIRHSTSMPAMRNS: the protein stability index was determined as 2.67.
With ISKKFGDMSYSIRHSKSMPAMRNS, the protein stability index stood at 2.98.
For ISKKFGDMSYSIRHSYSMPAMRNS the value was 2.12; for ISKKFGDMSYSIRHSCSMPAMRNS, 2.02; for ISKKFGDMSYSIRHSPSMPAMRNS, 2.99.
For ISKKFGDMSYSIRHSISMPAMRPS the value was 2.46; for ISKKFGDMSYSIRHSISMPAMRRS, 2.14; for ISKKFGDMSYSIRHSISMPAMRAS, 1.86.
To ISKKFGDMSYSIRHSISMPAMRKS belongs 2.48; to ISKKFGDMSYSIRHSISMPAMRGS, 2.42; to ISKKFGDMNYSIRHSISMPAMRNS, 2.36.
Take ISKKFGDMQYSIRHSISMPAMRNS: the protein stability index stood at 2.31.
For ISKKFGDMIYSIRHSISMPAMRNS the value was 2.59.
For the variant ISKKFGDMAYSIRHSISMPAMRNS, the protein stability index worked out at 2.23.
Regarding ISKKFGDMYYSIRHSISMPAMRNS, the protein stability index came out at 1.98.
To ISKKFGDMRYSIRHSISMPAMRNS belongs 2.22.
For ISKKFGDMTYSIRHSISMPAMRNS the value was 2; for ISKKFGDMGYSIRHSISMPAMRNS, 2.27; for ISKKFGDMCYSIRHSISMPAMRNS, 1.88.
For ISKKFGDMPYSIRHSISMPAMRNS the value was 2.03; for IGKKFGDMSYSIRHSISMPAMRNS, 2.88.
As for ICKKFGDMSYSIRHSISMPAMRNS, the protein stability index came out at 1.82.
As for IFKKFGDMSYSIRHSISMPAMRNS, the protein stability index worked out at 1.74.
For IIKKFGDMSYSIRHSISMPAMRNS the value was 2.97; for IRKKFGDMSYSIRHSISMPAMRNS, 2.54; for IPKKFGDMSYSIRHSISMPAMRNS, 2.89.
As for ISKKFGDMSYSIRHSISMPAMVNS, the protein stability index is 1.8.
Regarding ISKKFGDMSYSIRHSISMPAMPNS, the protein stability index worked out at 2.34.
